Molecular target: Recombinant human VISTA Fc Chimera (human (homo sapiens))
Test: functional ELISA: rhVISTA coated at 2 µg/mL, biotin-labeled rhVSIG3, streptavidin-HRP
Description: Following blocking of the wells with 1% BSA, varying amounts of rhVSIG3 labeled with biotin was added. Biotin label associated with the plate due to the rhVSIG3—rhVISTA interaction was detected with streptavidin-HRP.

Chain of Recombinant human VISTA Fc Chimera (human (homo sapiens)) (chain, as listed by the source mutant limits assumed): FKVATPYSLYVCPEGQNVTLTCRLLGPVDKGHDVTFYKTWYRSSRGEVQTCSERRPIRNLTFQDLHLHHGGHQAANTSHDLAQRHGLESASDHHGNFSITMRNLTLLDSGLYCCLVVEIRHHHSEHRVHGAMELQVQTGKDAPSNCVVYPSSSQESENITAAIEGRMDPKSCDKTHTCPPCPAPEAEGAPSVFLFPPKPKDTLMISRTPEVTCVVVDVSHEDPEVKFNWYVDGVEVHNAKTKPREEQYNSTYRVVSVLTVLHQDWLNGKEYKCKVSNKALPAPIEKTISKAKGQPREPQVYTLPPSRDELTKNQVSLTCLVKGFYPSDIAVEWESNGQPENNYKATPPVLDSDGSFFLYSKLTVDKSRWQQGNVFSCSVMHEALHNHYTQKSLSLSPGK

B1: Recombinant human VSIG3 Fc Chimera (Fc fusion)
chain: LEVSESPGSIQVARGQTAVLPCTFTTSAALINLNVIWMVTPLSNANQPEQVILYQGGQMFDGAPRFHGRVGFTGTMPATNVSIFINNTQLSDTGTYQCLVNNLPDIGGRNIGVTGLTVLVPPSAPHCQIQGSQDIGSDVILLCSSEEGIPRPTYLWEKLDNTLKLPPTATQDQVQGTVTIRNISALSSGLYQCVASNAIGTSTCLLDLQVISPQPRNIGLIAG
Work on B1 yielded an EC50 of roughly 0.25 µg/mL.

From patent publication US11649285B2, “Identification of VSIG3/VISTA as a novel immune checkpoint and use thereof for immunotherapy” (BIO-TECHNE CORPORATION, dated 2023)
